# Assays:
# Assay in all cases: cell_activity
# [1] = system: ZFP SBS15590 (monomer of eZFN1 and eZFN8) (synthetic construct); conditions: in planta cut plus chimeric
# [2] = system: ZFP SBS18473 (monomer of eZFN8) (synthetic construct); conditions: as eZFN8 pair with SBS15590; in planta cut plus chimeric, 489/697 plants
# [3] = system: ZFP SBS8196 (monomer of eZFN1) (synthetic construct); conditions: as eZFN1 pair with SBS15590; in planta cut plus chimeric, 524/1125 plants
sequence,measurement,setting,value
ATTTTACAATCCTGTCCCTAGTGAGATGGGCGGGAGTCTTCAATCCTGTCCCTAGTGGATAAACTGCAAAAGGCGGATCA (double strand) [ELP locus eZFN1/eZFN8 binding region],activity,"[1]; as eZFN1 pair with SBS8196, 524/1125 plants",46.6%
same,activity,"[1]; as eZFN8 pair with SBS18473, 489/697 plants",70.2%
same,activity,[2],70.2%
same,activity,[3],46.6%

# From patent publication US20140298547
